System: Escherichia coli TOP10
Assay: shrunken log2 fold change of peptide-encoding DNA abundance (4.5 h post-induction vs induction); higher = less antimicrobial activity (less host growth inhibition)
Settings: time post-induction: 4.5 h; library: site-saturation at positions 5, 18, 19, 20
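Also: peptides expressed intracellularly from a pBAD plasmid library in pooled LB shake-flask culture, induced with 0.3% L-arabinose, DNA abundance read by NGS, three biological replicates, DESeq2 with apeglm shrinkage.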

Row | Sequence | shrunken log2 fold change
1 | RRIRARPPRLPRPRPRPYTLPRP | -0.213
2 | RRIRARPPRLPRPRPRPYWIPRP | -0.556
3 | RRIRARPPRLPRPRPRPYWQPRP | 0.046
4 | RRIRARPPRLPRPRPRPYWVPRP | -0.57
5 | RRIRCRPPRLPRPRPRPACWPRP | 0.219
6 | RRIRCRPPRLPRPRPRPADGPRP | -0.129
7 | RRIRCRPPRLPRPRPRPAGQPRP | -0.109
8 | RRIRCRPPRLPRPRPRPAGTPRP | -0.202
9 | RRIRCRPPRLPRPRPRPAHRPRP | 0.392
10 | RRIRCRPPRLPRPRPRPAIYPRP | -0.17
11 | RRIRCRPPRLPRPRPRPAKAPRP | 0.162
12 | RRIRCRPPRLPRPRPRPAKDPRP | 0.021
13 | RRIRCRPPRLPRPRPRPALAPRP | 0.475
14 | RRIRCRPPRLPRPRPRPALPPRP | 0.143
15 | RRIRCRPPRLPRPRPRPAPKPRP | 1.02
16 | RRIRCRPPRLPRPRPRPAPNPRP | 0.526
17 | RRIRCRPPRLPRPRPRPAQLPRP | -0.169
18 | RRIRCRPPRLPRPRPRPAQQPRP | 0.342
19 | RRIRCRPPRLPRPRPRPAQTPRP | 0.0194
20 | RRIRCRPPRLPRPRPRPARLPRP | 0.395
21 | RRIRCRPPRLPRPRPRPASHPRP | -0.241
22 | RRIRCRPPRLPRPRPRPASQPRP | -0.0515
23 | RRIRCRPPRLPRPRPRPASSPRP | 0.124
24 | RRIRCRPPRLPRPRPRPASVPRP | 0.176
25 | RRIRCRPPRLPRPRPRPASWPRP | 0.219

Row | Sequence | shrunken log2 fold change
26 | RRIRCRPPRLPRPRPRPATKPRP | 0.0383
27 | RRIRCRPPRLPRPRPRPAVEPRP | -0.0939
28 | RRIRCRPPRLPRPRPRPAWGPRP | 0.193
29 | RRIRCRPPRLPRPRPRPAWPPRP | 0.895
30 | RRIRCRPPRLPRPRPRPAYWPRP | 0.293
31 | RRIRCRPPRLPRPRPRPCAPPRP | -0.00137
32 | RRIRCRPPRLPRPRPRPCCKPRP | -0.0101
33 | RRIRCRPPRLPRPRPRPCCMPRP | -0.392
34 | RRIRCRPPRLPRPRPRPCCYPRP | -0.696
35 | RRIRCRPPRLPRPRPRPCDMPRP | -0.277
36 | RRIRCRPPRLPRPRPRPCDRPRP | -0.351
37 | RRIRCRPPRLPRPRPRPCFDPRP | -0.526
38 | RRIRCRPPRLPRPRPRPCFFPRP | 0.392
39 | RRIRCRPPRLPRPRPRPCFLPRP | -0.622
40 | RRIRCRPPRLPRPRPRPCHDPRP | -0.69
41 | RRIRCRPPRLPRPRPRPCHVPRP | -0.00144
42 | RRIRCRPPRLPRPRPRPCISPRP | -0.582
43 | RRIRCRPPRLPRPRPRPCKSPRP | -0.0591
44 | RRIRCRPPRLPRPRPRPCMDPRP | -0.09
45 | RRIRCRPPRLPRPRPRPCNTPRP | -0.306
46 | RRIRCRPPRLPRPRPRPCPSPRP | -0.0705
47 | RRIRCRPPRLPRPRPRPCQRPRP | 0.0663
48 | RRIRCRPPRLPRPRPRPCRCPRP | -0.389
49 | RRIRCRPPRLPRPRPRPCRQPRP | 0.0584
50 | RRIRCRPPRLPRPRPRPCRYPRP | -0.446

Row | Sequence | shrunken log2 fold change
51 | RRIRCRPPRLPRPRPRPCYWPRP | -0.595
52 | RRIRCRPPRLPRPRPRPDAGPRP | 0.122
53 | RRIRCRPPRLPRPRPRPDCRPRP | -0.195
54 | RRIRCRPPRLPRPRPRPDDGPRP | -0.0952
55 | RRIRCRPPRLPRPRPRPDGKPRP | -0.0306
56 | RRIRCRPPRLPRPRPRPDGTPRP | 0.105
57 | RRIRCRPPRLPRPRPRPDHEPRP | -0.144
58 | RRIRCRPPRLPRPRPRPDHNPRP | -0.239
59 | RRIRCRPPRLPRPRPRPDLCPRP | -0.047
60 | RRIRCRPPRLPRPRPRPDLTPRP | -0.275
61 | RRIRCRPPRLPRPRPRPDMFPRP | -0.148
62 | RRIRCRPPRLPRPRPRPDMSPRP | -0.329
63 | RRIRCRPPRLPRPRPRPDMVPRP | -0.184
64 | RRIRCRPPRLPRPRPRPDPAPRP | 0.412
65 | RRIRCRPPRLPRPRPRPDPEPRP | -0.0407
66 | RRIRCRPPRLPRPRPRPDPGPRP | 0.112
67 | RRIRCRPPRLPRPRPRPDPIPRP | -0.0573
68 | RRIRCRPPRLPRPRPRPDPPPRP | 0.52
69 | RRIRCRPPRLPRPRPRPDPRPRP | 0.83
70 | RRIRCRPPRLPRPRPRPDQAPRP | 0.288
71 | RRIRCRPPRLPRPRPRPDRKPRP | -0.458
72 | RRIRCRPPRLPRPRPRPDRMPRP | -0.139
73 | RRIRCRPPRLPRPRPRPDRPPRP | 0.19
74 | RRIRCRPPRLPRPRPRPDRWPRP | 0.0613
75 | RRIRCRPPRLPRPRPRPDRYPRP | 0.00956

Row | Sequence | shrunken log2 fold change
76 | RRIRCRPPRLPRPRPRPDVIPRP | -0.405
77 | RRIRCRPPRLPRPRPRPDWHPRP | -0.358
78 | RRIRCRPPRLPRPRPRPDWIPRP | -0.159
79 | RRIRCRPPRLPRPRPRPDYGPRP | 2.76
80 | RRIRCRPPRLPRPRPRPECIPRP | 0.0623
81 | RRIRCRPPRLPRPRPRPEEFPRP | 0.0238
82 | RRIRCRPPRLPRPRPRPEELPRP | 0.249
83 | RRIRCRPPRLPRPRPRPEFKPRP | 0.0244
84 | RRIRCRPPRLPRPRPRPEGSPRP | -0.043
85 | RRIRCRPPRLPRPRPRPEILPRP | -0.0141
86 | RRIRCRPPRLPRPRPRPEKKPRP | 0.0741
87 | RRIRCRPPRLPRPRPRPELAPRP | 0.403
88 | RRIRCRPPRLPRPRPRPELLPRP | -0.0954
89 | RRIRCRPPRLPRPRPRPELWPRP | 0.732
90 | RRIRCRPPRLPRPRPRPEMQPRP | 0.526
91 | RRIRCRPPRLPRPRPRPENIPRP | -1.32
92 | RRIRCRPPRLPRPRPRPEPEPRP | 0.706
93 | RRIRCRPPRLPRPRPRPEPLPRP | 0.438
94 | RRIRCRPPRLPRPRPRPEPRPRP | 0.61
95 | RRIRCRPPRLPRPRPRPEQEPRP | -0.0332
96 | RRIRCRPPRLPRPRPRPESEPRP | 0.237
97 | RRIRCRPPRLPRPRPRPETGPRP | -0.0271
98 | RRIRCRPPRLPRPRPRPEVDPRP | 0.0462
99 | RRIRCRPPRLPRPRPRPEVPPRP | -0.119
100 | RRIRCRPPRLPRPRPRPEWKPRP | 0.0169

Row | Sequence | shrunken log2 fold change
101 | RRIRCRPPRLPRPRPRPEYHPRP | -0.222
102 | RRIRCRPPRLPRPRPRPEYIPRP | -0.144
103 | RRIRCRPPRLPRPRPRPEYTPRP | -0.139
104 | RRIRCRPPRLPRPRPRPEYVPRP | -0.244
105 | RRIRCRPPRLPRPRPRPFAFPRP | -0.169
106 | RRIRCRPPRLPRPRPRPFECPRP | -0.365
107 | RRIRCRPPRLPRPRPRPFEHPRP | -0.792
108 | RRIRCRPPRLPRPRPRPFFFPRP | 0.101
109 | RRIRCRPPRLPRPRPRPFFMPRP | -0.201
110 | RRIRCRPPRLPRPRPRPFHAPRP | -0.44
111 | RRIRCRPPRLPRPRPRPFIMPRP | -0.765
112 | RRIRCRPPRLPRPRPRPFISPRP | -0.689
113 | RRIRCRPPRLPRPRPRPFIWPRP | -0.717
114 | RRIRCRPPRLPRPRPRPFKEPRP | -0.342
115 | RRIRCRPPRLPRPRPRPFKKPRP | -0.319
116 | RRIRCRPPRLPRPRPRPFKMPRP | -0.854
117 | RRIRCRPPRLPRPRPRPFLWPRP | -0.119
118 | RRIRCRPPRLPRPRPRPFMYPRP | -0.592
119 | RRIRCRPPRLPRPRPRPFNTPRP | -0.2
120 | RRIRCRPPRLPRPRPRPFRRPRP | -0.237
121 | RRIRCRPPRLPRPRPRPFSTPRP | -0.472
122 | RRIRCRPPRLPRPRPRPFSYPRP | -0.947
123 | RRIRCRPPRLPRPRPRPFTMPRP | -1.13
124 | RRIRCRPPRLPRPRPRPFTWPRP | -0.188
125 | RRIRCRPPRLPRPRPRPFVFPRP | -0.26

Row | Sequence | shrunken log2 fold change
126 | RRIRCRPPRLPRPRPRPFWTPRP | -0.317
127 | RRIRCRPPRLPRPRPRPFYTPRP | 0.235
128 | RRIRCRPPRLPRPRPRPFYWPRP | 0.0228
129 | RRIRCRPPRLPRPRPRPGAYPRP | -0.319
130 | RRIRCRPPRLPRPRPRPGCHPRP | -0.00885
131 | RRIRCRPPRLPRPRPRPGCQPRP | 0.00667
132 | RRIRCRPPRLPRPRPRPGDHPRP | -0.583
133 | RRIRCRPPRLPRPRPRPGDTPRP | -0.0505
134 | RRIRCRPPRLPRPRPRPGDYPRP | -0.081
135 | RRIRCRPPRLPRPRPRPGITPRP | -0.232
136 | RRIRCRPPRLPRPRPRPGKQPRP | -0.106
137 | RRIRCRPPRLPRPRPRPGKRPRP | 0.244
138 | RRIRCRPPRLPRPRPRPGMFPRP | -0.462
139 | RRIRCRPPRLPRPRPRPGNHPRP | -0.587
140 | RRIRCRPPRLPRPRPRPGNVPRP | -0.357
141 | RRIRCRPPRLPRPRPRPGPTPRP | 0.848
142 | RRIRCRPPRLPRPRPRPGRRPRP | 1.11
143 | RRIRCRPPRLPRPRPRPGSKPRP | -0.179
144 | RRIRCRPPRLPRPRPRPGTDPRP | -0.00121
145 | RRIRCRPPRLPRPRPRPGWPPRP | 0.63
146 | RRIRCRPPRLPRPRPRPGWSPRP | -0.0169
147 | RRIRCRPPRLPRPRPRPGYVPRP | -0.0932
148 | RRIRCRPPRLPRPRPRPGYWPRP | 0.196
149 | RRIRCRPPRLPRPRPRPHCGPRP | -0.156
150 | RRIRCRPPRLPRPRPRPHDLPRP | -0.46
